Source: patent US20260062456A1 (ALPINE IMMUNE SCIENCES, published 2026)

T1: human TIGIT stably expressed on Jurkat/IL-2 reporter cells (Jurkat/TIGIT cells) (human, UniProt Q495A1 22-244)
T1 sequence (looked up): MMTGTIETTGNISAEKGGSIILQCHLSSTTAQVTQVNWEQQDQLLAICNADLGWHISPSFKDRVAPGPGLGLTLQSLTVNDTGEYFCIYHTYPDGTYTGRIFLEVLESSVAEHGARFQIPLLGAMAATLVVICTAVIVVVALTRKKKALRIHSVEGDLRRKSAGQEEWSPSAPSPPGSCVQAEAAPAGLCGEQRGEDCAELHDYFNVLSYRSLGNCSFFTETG

B1: PD-L1/CD155 Stack 1: (CD155 IgV) (G4S)2 Fc (G4S)3 (PD-L1 IgV) (Fc fusion)
chain: WPPPGTGDVVVQAPTQVSGFLGDSVTLPCYLQVPNMEVTHVSQLTWARHGESGSMAVFHQTQGPWYAESKRLEFVAARLGAELRNASLRMFGLRVEDEGNYTCQFVTFPQRSRSVDIWLRVLGGGGSGGGGSEPKSSDKTHTCPPCPAPEAEGAPSVFLFPPKPKDTLMISRTPEVTCVVVDVSHEDPEVKFNWYVDGVEVHNAKTKPREEQYNSTYRVVSVLTVLHQDWLNGKEYKCKVSNKALPAPIEKTISKAKGQPREPQVYTLPPSRDELTKNQVSLTCLVKGFYPSDIAVEWESNGQPENNYKTTPPVLDSDGSFFLYSKLTVDKSRWQQGNVFSCSVMHEALHNHYTQKSLSLSPGKGGGGSGGGGSGGGGSFTVTVPKDLYVVEYGSNMTIECKFPVEKQLDLAALIVYWEMEGKDIIQFVHGEEDQKAQHSSYRQRARLLKDQLSLGNAALQITDVKLQDAGVYRCMISYGGGADYKRITVKVNA
B2: variant PD-L1 ECD-Fc N45D, Q89R, I98V (Fc fusion, not shown: a dimerising Fc or GST)
chain: FTVTVPKDLYVVEYGSNMTIECKFPVEKQLDLAALIVYWEMEDKDIIQFVHGEEDLKVQHSSYRQRARLLKDQLSLGNAALQITDVKLRDAGVYRCMVSYGGADYKRITVKVNAPYNKINQRILVVDPVTSEHELTCQAEGYPKAEVIWTSSDHQVLSGKTTTTNSKREEKLFNVTSTLRINTTTNEIFYCTFRRLDPEENHTAELVIPELPLAHPPNER
B3: variant PD-L1 ECD-Fc N45D, T183A, T192S, R194G (Fc fusion, not shown: a dimerising Fc or GST)
chain: FTVTVPKDLYVVEYGSNMTIECKFPVEKQLDLAALIVYWEMEDKDIIQFVHGEEDLKVQHSSYRQRARLLKDQLSLGNAALQITDVKLQDAGVYRCMISYGGADYKRITVKVNAPYNKINQRILVVDPVTSEHELTCQAEGYPKAEVIWTSSDHQVLSGKTTTTNSKREEKLFNVTSTLRINATTNEIFYCSFGRLDPEENHTAELVIPELPLAHPPNER
B4: variant PD-L1 ECD-Fc N45D, V50A, R195T (Fc fusion, not shown: a dimerising Fc or GST)
chain: FTVTVPKDLYVVEYGSNMTIECKFPVEKQLDLAALIVYWEMEDKDIIQFAHGEEDLKVQHSSYRQRARLLKDQLSLGNAALQITDVKLQDAGVYRCMISYGGADYKRITVKVNAPYNKINQRILVVDPVTSEHELTCQAEGYPKAEVIWTSSDHQVLSGKTTTTNSKREEKLFNVTSTLRINTTTNEIFYCTFRTLDPEENHTAELVIPELPLAHPPNER
B5: variant PD-L1 ECD-Fc N45D, T163I, K167R, R195G (Fc fusion, not shown: a dimerising Fc or GST)
chain: FTVTVPKDLYVVEYGSNMTIECKFPVEKQLDLAALIVYWEMEDKDIIQFVHGEEDLKVQHSSYRQRARLLKDQLSLGNAALQITDVKLQDAGVYRCMISYGGADYKRITVKVNAPYNKINQRILVVDPVTSEHELTCQAEGYPKAEVIWTSSDHQVLSGKTTITNSRREEKLFNVTSTLRINTTTNEIFYCTFRGLDPEENHTAELVIPELPLAHPPNER
B6: variant PD-L1 ECD-Fc N45D, S75P, P198S (Fc fusion, not shown: a dimerising Fc or GST)
chain: FTVTVPKDLYVVEYGSNMTIECKFPVEKQLDLAALIVYWEMEDKDIIQFVHGEEDLKVQHSSYRQRARLLKDQLPLGNAALQITDVKLQDAGVYRCMISYGGADYKRITVKVNAPYNKINQRILVVDPVTSEHELTCQAEGYPKAEVIWTSSDHQVLSGKTTTTNSKREEKLFNVTSTLRINTTTNEIFYCTFRRLDSEENHTAELVIPELPLAHPPNER
B7: variant PD-L1 ECD-Fc N45D, V50A, I119T, K144E (Fc fusion, not shown: a dimerising Fc or GST)
chain: FTVTVPKDLYVVEYGSNMTIECKFPVEKQLDLAALIVYWEMEDKDIIQFAHGEEDLKVQHSSYRQRARLLKDQLSLGNAALQITDVKLQDAGVYRCMISYGGADYKRITVKVNAPYNKTNQRILVVDPVTSEHELTCQAEGYPEAEVIWTSSDHQVLSGKTTTTNSKREEKLFNVTSTLRINTTTNEIFYCTFRRLDPEENHTAELVIPELPLAHPPNER
B8: variant PD-L1 ECD-Fc N45D, V50A, I148V, R195G, N201D (Fc fusion, not shown: a dimerising Fc or GST)
chain: FTVTVPKDLYVVEYGSNMTIECKFPVEKQLDLAALIVYWEMEDKDIIQFAHGEEDLKVQHSSYRQRARLLKDQLSLGNAALQITDVKLQDAGVYRCMISYGGADYKRITVKVNAPYNKINQRILVVDPVTSEHELTCQAEGYPKAEVVWTSSDHQVLSGKTTTTNSKREEKLFNVTSTLRINTTTNEIFYCTFRGLDPEEDHTAELVIPELPLAHPPNER
B9: variant PD-L1 ECD-Fc N45D, V50A, L124S, K144E, L179P, R195G (Fc fusion, not shown: a dimerising Fc or GST)
chain: FTVTVPKDLYVVEYGSNMTIECKFPVEKQLDLAALIVYWEMEDKDIIQFAHGEEDLKVQHSSYRQRARLLKDQLSLGNAALQITDVKLQDAGVYRCMISYGGADYKRITVKVNAPYNKINQRISVVDPVTSEHELTCQAEGYPEAEVIWTSSDHQVLSGKTTTTNSKREEKLFNVTSTPRINTTTNEIFYCTFRGLDPEENHTAELVIPELPLAHPPNER
B10: variant PD-L1 ECD-Fc N45D, S131F, P198S (Fc fusion, not shown: a dimerising Fc or GST)
chain: FTVTVPKDLYVVEYGSNMTIECKFPVEKQLDLAALIVYWEMEDKDIIQFVHGEEDLKVQHSSYRQRARLLKDQLSLGNAALQITDVKLQDAGVYRCMISYGGADYKRITVKVNAPYNKINQRILVVDPVTFEHELTCQAEGYPKAEVIWTSSDHQVLSGKTTTTNSKREEKLFNVTSTLRINTTTNEIFYCTFRRLDSEENHTAELVIPELPLAHPPNER
B11: variant PD-L1 ECD-Fc N45D, S99G, C137R, V207A (Fc fusion, not shown: a dimerising Fc or GST)
chain: FTVTVPKDLYVVEYGSNMTIECKFPVEKQLDLAALIVYWEMEDKDIIQFVHGEEDLKVQHSSYRQRARLLKDQLSLGNAALQITDVKLQDAGVYRCMIGYGGADYKRITVKVNAPYNKINQRILVVDPVTSEHELTRQAEGYPKAEVIWTSSDHQVLSGKTTTTNSKREEKLFNVTSTLRINTTTNEIFYCTFRRLDPEENHTAELAIPELPLAHPPNER
B12: variant PD-L1 ECD-Fc N45D, R68L, F173L, D197G, P198S (Fc fusion, not shown: a dimerising Fc or GST)
chain: FTVTVPKDLYVVEYGSNMTIECKFPVEKQLDLAALIVYWEMEDKDIIQFVHGEEDLKVQHSSYRQRALLLKDQLSLGNAALQITDVKLQDAGVYRCMISYGGADYKRITVKVNAPYNKINQRILVVDPVTSEHELTCQAEGYPKAEVIWTSSDHQVLSGKTTTTNSKREEKLLNVTSTLRINTTTNEIFYCTFRRLGSEENHTAELVIPELPLAHPPNER
B13: variant PD-L1 ECD-Fc V11E, N45D, T130A, P198T (Fc fusion, not shown: a dimerising Fc or GST)
chain: FTVTVPKDLYEVEYGSNMTIECKFPVEKQLDLAALIVYWEMEDKDIIQFVHGEEDLKVQHSSYRQRARLLKDQLSLGNAALQITDVKLQDAGVYRCMISYGGADYKRITVKVNAPYNKINQRILVVDPVASEHELTCQAEGYPKAEVIWTSSDHQVLSGKTTTTNSKREEKLFNVTSTLRINTTTNEIFYCTFRRLDTEENHTAELVIPELPLAHPPNER
B14: PD-L1/CD155 Stack 2: (PD-L1 IgV) (G4S)2 Fc(G4S)3 (CD155 IgV) (Fc fusion)
chain: FTVTVPKDLYVVEYGSNMTIECKFPVEKQLDLAALIVYWEMEGKDIIQFVHGEEDQKAQHSSYRQRARLLKDQLSLGNAALQITDVKLQDAGVYRCMISYGGGADYKRITVKVNAGGGGSGGGGSEPKSSDKTHTCPPCPAPEAEGAPSVFLFPPKPKDTLMISRTPEVTCVVVDVSHEDPEVKFNWYVDGVEVHNAKTKPREEQYNSTYRVVSVLTVLHQDWLNGKEYKCKVSNKALPAPIEKTISKAKGQPREPQVYTLPPSRDELTKNQVSLTCLVKGFYPSDIAVEWESNGQPENNYKTTPPVLDSDGSFFLYSKLTVDKSRWQQGNVFSCSVMHEALHNHYTQKSLSLSPGKGGGGSGGGGSGGGGSWPPPGTGDVVVQAPTQVSGFLGDSVTLPCYLQVPNMEVTHVSQLTWARHGESGSMAVFHQTQGPWYAESKRLEFVAARLGAELRNASLRMFGLRVEDEGNYTCQFVTFPQRSRSVDIWLRVL

What was measured:
[1] = target: T1, human TIGIT stably expressed on …; experiment: cell-based or functional assay
[2] = target: T2, human PD-1 stably expressed on Jurkat/IL-2 reporter cells (Jurkat/PD-1 cells) (human, UniProt Q15116 25-288); experiment: cell-based or functional assay
T2 sequence (Q15116 25-288): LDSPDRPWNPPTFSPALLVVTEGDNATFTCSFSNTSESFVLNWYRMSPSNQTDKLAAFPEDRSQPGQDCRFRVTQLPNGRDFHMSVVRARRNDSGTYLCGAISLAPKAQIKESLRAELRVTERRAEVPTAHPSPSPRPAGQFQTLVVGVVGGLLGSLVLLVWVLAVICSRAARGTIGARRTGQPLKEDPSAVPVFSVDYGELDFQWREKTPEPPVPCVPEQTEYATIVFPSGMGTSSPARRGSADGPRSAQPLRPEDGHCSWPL

[3] = target: T2, human PD-1 stably expressed on …; experiment: flow cytometry, Jurkat/PD-1 cells

Row | Binder | Fold Increase over WT PD-L1 ECD-Fc [3] [fold] | MFI at 20 nM conc. [3] [MFI] | further results
1 | B1 |  |  | Fold Increase Compared to non-stack variant CD155 IgV-Fc control [1]: 1.7 fold; Fold Increase Compared to non-stack variant PD-L1 IgV-Fc control [1]: 0.6 fold; Fold Increase Compared to variant PD-L1 IgV-Fc and variant CD155 IgV-Fc [1]: 0.8 fold; RLU [1]: 573 RLU; Fold Increase Compared to non-stack variant CD155 IgV-Fc control [2]: 1.7 fold; Fold Increase Compared to non-stack variant PD-L1 IgV-Fc control [2]: 0.6 fold; Fold Increase Compared to variant PD-L1 IgV-Fc and variant CD155 IgV-Fc [2]: 0.8 fold; RLU [2]: 573 RLU
2 | B2 | 18.1 | 90500 | 
3 | B3 | 0.3 | 1350 | 
4 | B4 | 28.3 | 142000 | 
5 | B5 | 26.7 | 134000 | 
6 | B6 | 25.9 | 130000 | 
7 | B7 | 6.8 | 34200 | 
8 | B8 | 26.2 | 131000 | 
9 | B9 | 3.6 | 18200 | 
10 | B10 | 23.2 | 116000 | 
11 | B11 | 0.2 | 834 | 
12 | B12 | 11.8 | 59300 | 
13 | B13 | 27.4 | 137000 | 
14 | B14 |  |  | Fold Increase Compared to non-stack variant CD155 IgV-Fc control [1]: 2.8 fold; Fold Increase Compared to non-stack variant PD-L1 IgV-Fc control [1]: 1 fold; Fold Increase Compared to variant PD-L1 IgV-Fc and variant CD155 IgV-Fc [1]: 1.4 fold; RLU [1]: 962 RLU; Fold Increase Compared to non-stack variant CD155 IgV-Fc control [2]: 2.8 fold; Fold Increase Compared to non-stack variant PD-L1 IgV-Fc control [2]: 1 fold; Fold Increase Compared to variant PD-L1 IgV-Fc and variant CD155 IgV-Fc [2]: 1.4 fold; RLU [2]: 962 RLU
